Assay results from patent US10813788B2, “Implantable therapeutic device” (ForSight Vision4, Inc., priority 2009, dated 2020).
Several values for one entry are separate records, joined by “and”; a condition that tells them apart may be missing. Equal entries are not always repeated. Where two headings read alike, the source gives them in different places.

Assays:
[1] = Osmolarity of saline and commercial formulations (Table 1B, calculations); format: physicochemical; conditions: Summary of Calculations
From the text: The formulation of therapeutic agent injected into therapeutic device 100 may comprise many known formulations of therapeutic agents, and the formulation therapeutic agent comprises an osmolarity suitable for release for an extended time from device 100.
The vitreous humor of the eye comprises an osmolarity of about 290 mOsm to about 320 mOsm. Formulations of therapeutic agent having an osmolarity from about 280 mOsm to about 340 mOsm are substantially isotonic and substantially iso-osmotic with respect to the vitreous humor of the eye. Although the formulations listed in Table 1B are substantially iso-osmotic and isotonic with respect to the vitreous of the eye and suitable for injection into the therapeutic device, the formulation of the therapeutic agent injected into the therapeutic device can be hypertonic (hyper-osmotic) or hypotonic (hypo-osmotic) with respect to the tonicity and osmolarity of the vitreous. […]

[2] = cited from earlier work; for half-life in the vitreous: rabbit and monkey
[3] = Measured release of ranibizumab 100 mg/mL from devices with porous titanium frit, device half life 250 days, Example B; format: physicochemical; conditions: for 100 mg/mL Rate, Average: devices with 250 day half life, n = 5
Protocol: The intended RRI was about 0.008 based on gas flow measurements and manufacturing as described herein. The therapeutic device reservoir volume was about 25 uL.
The formulation was filled into five devices and all underwent drug release testing for 180 days.

[4] = Measured release of ranibizumab 40 and 100 mg/mL from a population of devices, Example C; format: physicochemical; conditions: at 15 weeks, 25 uL, RRI 0.02
Protocol: Therapeutic devices having stainless steel porous frit structures and formulations were prepared in accordance with Examples A and B. The devices had volumes of 25 uL and an RRI of 0.02.
Pressure decay tests of the assembled porous frit structures were conducted as described herein.
Eighteen devices were injected with the 100 mg/mL formulation and 18 devices were injected with the 40 mg/mL formulation. However, measurements of some devices were stopped for other assays every 4 months so only 6 devices for each formulation have release data through 180 days. The rate of release was measured for 16 weeks, and the amount release after each 2 week interval determined. […] The data indicates a measured rate of 3.5 and 8.1 ug/day at 15 weeks, for the 40 and 100 mg/mL formulation injections, respectively.

[5] = test system: laser photocoagulation treatment-induced Grade IV choroidal neovascularization (CNV) lesions; conditions: intravitreal injection at all doses tested, cynomolgus monkeys; Z. Yao et al., ARVO 2009; cited from earlier work
[6] = human eye; cited from earlier work
[7] = Measured release of ranibizumab 40 and 100 mg/mL from devices with porous titanium frit, device half life 100 days, Example A; format: physicochemical; conditions: for RRI (mm), Mean: 25 uL device, titanium frit about 0.04 in thick, OD about 0.03 in; for 40 mg/mL Rate, Average / 100 mg/mL Rate, Average: devices with 100 day half life, unit not given
From the text: No. 2010/0015157, entitled “Antibody Formulations”, the full disclosure of which is incorporated herein by reference.
Devices were fabricated using the following method. A vessel was made from two subassemblies and a porous frit structure as described herein. […] The intended RRI was about 0.02 based on gas flow measurements and manufacturing as described herein. The implantable devices were manufactured in accordance with the teachings as described herein.
Devices were filled with formulation using a 33 G needle (TSK) and a standard tuberculin 1-cc syringe (BD). Excess liquid that had exited the porous sintered frit structure during filling was removed by use of a lab tissue and submerging in phosphate buffered saline (PBS, Sigma) and 0.02% sodium azide as a preservative. Each device was suspended in the center of a 1.5 mL microcentrifuge tube by use of a fixture. The tube was filled with 0.5 mL receiver fluid; i.e., PBS that had been degassed to minimize bubble formation. At selected times, the device was removed from the receiver fluid and placed in a new tube containing fresh receiver fluid. […] For the later time points, the sample concentrations were higher and concentration was determined by UV (Perkin Elmer Lambda 35). Drug release rates were calculated from measured concentration, the volume of the receiver fluid and the duration of the collection interval. Drug release rate profiles were plotted at the average elapsed time for each collection interval. RRI was determined via a least squares fit to the model.
Each formulation was filled into ten devices. Some devices were stopped at 3 and 4 months (n=3 each), leaving four that underwent drug release testing for 180 days.

[8] = test system: size of the lesion / retinal thickness in wet AMD (OCT); format: in vivo, human; conditions: for Treatment Effect Observed?: OCT decrease in size of the lesion
From the text: OCT (Optical Coherence Tomography) imaging was used to assess the condition of the region of the macula at the back surface of the treated eye. The OCT technique relies on the measurement of certain properties of light (e.g. echo time, intensity of reflection) that has been directed at the area of study and can measure very small amounts of reflected light. Because these cellular features are essentially transparent it is possible to use OCT methodology to generate three dimensional representations of the area.
The regions of interest were analyzed with a two dimensional representation of the cross section of the retinal wall at one longitudinal scan location of the OCT image. In these “OCT scan” images is it possible to interrogate very local areas of interest more specifically. The OCT scans were carefully selected to directly compare the thickness and anatomical structure of specific sites within a lesion, pre and post treatment, for the purpose of assessing the effect of injected drug including a reduction in sub-retinal fluid.
The OCT images were measured the day after injection and at 2-3 days post injection. […]

[9] = Measured release of Lucentis through porous frit structures, Example 15B; format: physicochemical; conditions: 10 mg/mL Lucentis, 30 uL, 37 C
From the text: All porous frit structures are 316L SS, Mott Corporation.
The diameter ranged from 0.031″ to 0.038″, and the length ranged from 0.029 to 0.049. The media grade ranged from 0.1 to 0.3, and the RRI ranged from 0.014 to 0.090.
Although some of the measurements were excluded, this exclusion is appropriate and associated with in vitro testing conditions that differ substantially from the in vivo model. Five devices were excluded due to bubble growth (10%), and four were excluded due to receiver volume issues at one timepoint for that device (8%). The latter can be an experimental error associated with the volume of the receiver below the assumed value due to evaporation from inadequately sealed vials or due to pipetting error. In some instances the in vitro experimental test apparatus can be sensitive to bubble formation that may differ substantially from the in vivo model as the living eye can resorb oxygen from the therapeutic devices. Bubbles can form as receiver fluid is heated to 37° C. and gas concentrations are greater than their solubilities at 37° C. To minimize the occurrence of bubble formation, receiver solutions were degassed before insertion of the devices.

Substance: ranibizumab [Lucentis]
- Osm [1]: 0.289 M
- Half-life ([2]; half-life measured for the monkey, parameter of Simulations 1-5 (Table 4A)): 63.1 h
- half-life in the vitreous [2]: two to four
- half-life in the vitreous ([2]; listed as ranibizumab): approximately 3 days
- RRI (mm), Mean ([3]; 100 mg/mL formulation, 25 uL device, titanium frit 0.031 in thick, OD 0.031): 0.008 mm
- 100 mg/mL Rate, Average ([3]; Day 90): 5.6 µg/day and 5.59 µg/day
- 100 mg/mL Rate, Average ([3]; Day 180): 4.51 µg/day
- measured rate of release ([4]; 40 mg/mL formulation): 3.5 µg/day
- measured rate of release ([4]; 100 mg/mL formulation): 8.1 µg/day
- development of Grade IV CNV lesions [5]: completely inhibited
- half-life in the vitreous [6]: ~220 h
- RRI (mm), Mean ([7]; 40 mg/mL formulation): 0.02 mm and 0.024 mm
- RRI (mm), Mean ([7]; 100 mg/mL formulation): 0.02 mm and 0.021 mm
- 40 mg/mL Rate, Average ([7]; Day 90, n = 7): 5.52
- 100 mg/mL Rate, Average ([7]; Day 90, n = 7): 9.51
- 40 mg/mL Rate, Average ([7]; Day 180, n = 4): 2.42
- 100 mg/mL Rate, Average ([7]; Day 180, n = 4): 5.13
- MIC for a sustained release device ([8]; minimum inhibitory concentration in vivo in human patients, indicated by the low dose study): ≤ 1 ug per ml
- Treatment Effect Observed? ([8]; single patient, lowest dose administered 10 μg intravitreal): Yes
- Treatment Effect Observed? ([8]; single patients, lowest dose administered 5 μg intravitreal): Yes
- Treatment Effect Observed? ([8]; single patients, lowest dose administered 20 μg intravitreal): Yes
- RRI (mm) ([9]; frit 0.031 x 0.049 in, media grade 0.1 um, 2 replicates): 0.014 mm
- RRI (mm) ([9]; frit 0.031 x 0.049 in, media grade 0.2 um, 12 replicates): 0.021 mm
- RRI (mm) ([9]; frit 0.038 x 0.029 in, media grade 0.1 um, 5 replicates): 0.039 mm
- RRI (mm) ([9]; frit 0.038 x 0.029 in, media grade 0.2 um, 14 replicates): 0.061 mm
- RRI (mm) ([9]; frit 0.038 x 0.029 in, media grade 0.3 um, 6 replicates): 0.090 mm
